Molecular target: sfGFP^204SCO (Aequorea victoria) [GFP: P42212]
Assay: FRET or BRET; steady state emission of the covalently SPAAC-linked GFVen^204 dimer, excitation at 450 nm; relative efficiency from donor and acceptor intensities (Equation 3) after deconvolution

Venus^204azF (from UniProt P42212 2-238) (natural protein)
FRET efficiency allowing for variation in quantum yield: 85 to 91%
relative FRET efficiency: 87%

From PMC7788595
